The source of these data is publication PMC3118794.

Test [1] concerns the target “ghost” fiber reconstituted with labeled Tm (rabbit (endogenous in psoas muscle fibers) | not stated) (UniProt P68135). In words: reconstitution into ghost muscle fibers, washes, SDS-PAGE; 20 µM labeled Tm added to ghost fibers in RB buffer for 15 hours at 4°C, then 20 µM troponin complex and 20 µM S1; unbound proteins removed by repeated washes with rigor buffer; 12% SDS gel quantified. Conditions: scale: actin per TnI.

The target of test [2] is actin of “ghost” muscle fibers (rabbit (endogenous in psoas muscle fibers)) (UniProt P68135). Described as above. As to conditions: scale: actin per S1.

skeletal troponin complex, sequence (P02586 whole entry): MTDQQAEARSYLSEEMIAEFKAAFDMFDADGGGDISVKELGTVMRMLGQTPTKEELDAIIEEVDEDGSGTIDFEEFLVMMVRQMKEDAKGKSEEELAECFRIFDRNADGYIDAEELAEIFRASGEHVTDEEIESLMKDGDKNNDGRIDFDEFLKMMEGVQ
skeletal troponin complex, sequence (P02643 whole entry): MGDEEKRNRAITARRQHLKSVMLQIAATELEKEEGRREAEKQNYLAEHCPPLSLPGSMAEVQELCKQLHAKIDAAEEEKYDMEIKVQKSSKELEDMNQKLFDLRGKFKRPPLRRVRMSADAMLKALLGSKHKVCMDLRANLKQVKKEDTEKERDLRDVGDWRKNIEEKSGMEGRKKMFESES
skeletal troponin complex, sequence (P02641 whole entry): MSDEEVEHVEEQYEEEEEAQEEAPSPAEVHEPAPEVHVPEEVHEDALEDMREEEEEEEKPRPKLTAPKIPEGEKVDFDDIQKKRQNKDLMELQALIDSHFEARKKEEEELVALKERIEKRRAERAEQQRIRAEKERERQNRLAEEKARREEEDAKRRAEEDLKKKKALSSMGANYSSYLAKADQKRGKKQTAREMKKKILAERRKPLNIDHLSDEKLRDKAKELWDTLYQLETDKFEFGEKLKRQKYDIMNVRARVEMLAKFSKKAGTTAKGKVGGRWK
myosin subfragment-1 (domain or fragment), sequence (Q28641 whole entry, the tested form may be a part): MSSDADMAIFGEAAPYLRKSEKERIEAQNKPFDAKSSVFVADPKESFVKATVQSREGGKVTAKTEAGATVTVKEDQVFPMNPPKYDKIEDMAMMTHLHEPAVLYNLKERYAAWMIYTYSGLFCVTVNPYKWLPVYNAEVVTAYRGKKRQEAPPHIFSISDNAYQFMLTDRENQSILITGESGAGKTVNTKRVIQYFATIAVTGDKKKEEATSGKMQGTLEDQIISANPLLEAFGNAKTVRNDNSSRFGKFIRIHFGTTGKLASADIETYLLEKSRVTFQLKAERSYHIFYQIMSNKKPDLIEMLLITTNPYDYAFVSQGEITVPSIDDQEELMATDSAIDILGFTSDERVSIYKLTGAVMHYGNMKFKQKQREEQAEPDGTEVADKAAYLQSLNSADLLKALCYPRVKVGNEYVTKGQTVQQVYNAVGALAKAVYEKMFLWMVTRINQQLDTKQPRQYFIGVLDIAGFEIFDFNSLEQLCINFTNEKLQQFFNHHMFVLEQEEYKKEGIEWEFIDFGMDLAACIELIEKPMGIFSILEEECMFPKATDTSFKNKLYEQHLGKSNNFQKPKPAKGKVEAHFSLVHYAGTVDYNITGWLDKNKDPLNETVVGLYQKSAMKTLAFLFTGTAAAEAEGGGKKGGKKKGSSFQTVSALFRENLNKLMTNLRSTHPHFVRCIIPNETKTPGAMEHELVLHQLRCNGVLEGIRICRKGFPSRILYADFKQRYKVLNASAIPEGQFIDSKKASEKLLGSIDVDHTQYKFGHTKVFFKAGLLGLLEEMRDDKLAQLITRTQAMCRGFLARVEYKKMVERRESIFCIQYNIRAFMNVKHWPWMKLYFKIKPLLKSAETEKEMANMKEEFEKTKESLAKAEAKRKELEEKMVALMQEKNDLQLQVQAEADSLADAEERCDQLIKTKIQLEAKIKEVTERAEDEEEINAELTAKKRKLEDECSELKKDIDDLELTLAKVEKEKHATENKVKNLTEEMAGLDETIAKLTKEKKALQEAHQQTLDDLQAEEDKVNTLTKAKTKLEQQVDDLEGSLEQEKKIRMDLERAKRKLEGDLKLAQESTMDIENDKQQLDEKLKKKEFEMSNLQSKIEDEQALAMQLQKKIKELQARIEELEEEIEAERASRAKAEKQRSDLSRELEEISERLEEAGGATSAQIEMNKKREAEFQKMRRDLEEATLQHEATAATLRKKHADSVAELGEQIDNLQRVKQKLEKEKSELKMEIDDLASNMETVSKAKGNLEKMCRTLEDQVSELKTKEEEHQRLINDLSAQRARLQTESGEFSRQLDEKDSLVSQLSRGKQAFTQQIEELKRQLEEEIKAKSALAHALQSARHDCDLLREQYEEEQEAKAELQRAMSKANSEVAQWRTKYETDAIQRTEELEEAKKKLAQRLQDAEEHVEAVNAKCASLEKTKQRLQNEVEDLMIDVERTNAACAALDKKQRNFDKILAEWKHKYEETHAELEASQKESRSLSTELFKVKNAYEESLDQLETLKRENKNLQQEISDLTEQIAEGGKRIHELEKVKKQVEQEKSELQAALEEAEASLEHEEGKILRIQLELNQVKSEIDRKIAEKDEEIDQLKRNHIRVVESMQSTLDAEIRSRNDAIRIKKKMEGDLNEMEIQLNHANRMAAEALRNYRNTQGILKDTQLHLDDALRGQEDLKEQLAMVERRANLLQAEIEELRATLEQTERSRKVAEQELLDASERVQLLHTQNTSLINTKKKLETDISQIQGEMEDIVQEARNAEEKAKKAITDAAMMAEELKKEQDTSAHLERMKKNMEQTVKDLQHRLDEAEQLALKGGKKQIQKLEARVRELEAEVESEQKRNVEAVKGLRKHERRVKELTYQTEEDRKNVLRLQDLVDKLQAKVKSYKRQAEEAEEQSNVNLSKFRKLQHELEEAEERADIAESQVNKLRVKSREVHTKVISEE

As for “skeletal troponin complex (from UniProt P02586 1-160; P02643 1-182; P02641 1-279)”, the ratio of TnI:actin in the reconstituted fiber (SDS-PAGE) in test [1] is 4.5.

As to “myosin subfragment-1 (domain or fragment)”, the ratio of the S1:actin intensity in reconstituted ghost fibers (SDS-PAGE) in test [2] came to 1.
